Measurements reported in patent US12194076B2, “Methods and compositions for treating myelofibrosis” (Acceleron Pharma Inc., priority 2016, dated 2025).
Substitutions are numbered along the chain they refer to. Numbers in names are those of the source.

How the values were obtained:
[1] = tested on: anemic myelofibrosis patients; details: cited from earlier work
C57BL/6 mice = experiment: GDF trap in ruxolitinib treated animals, hematological parameters; assay type: in vivo; details: 60 mg/kg twice daily, four weeks
Description: Ruxolitinib is a Janus kinase inhibitor that has been approved for the treatment of intermediate or high-risk myelofibrosis. […] However, a variety of hematological side effects have been observed in patients treated with ruxolitinib including, for example, anemia. Nine month old C57BL/6 mice were used to understand the effects of ActRIIB(L79D 25-131)-Fc treatment on various hematological parameters in ruxolitinib treated mice.
For this study, treatment was initiated at 6-7 months of age. Mice were placed into one of four groups: i) treatment with ActRIIB(L79D 25-131)-Fc on a dosing schedule of 10 mg/kg twice weekly; ii) treatment with ruxolitinib on a dosing schedule of 60 mg/kg twice daily; iii) treatment with ActRIIB(L79D 25-131)-Fc on a dosing schedule of 10 mg/kg twice weekly and ruxolitinib on a dosing schedule of 60 mg/kg twice daily; and iv) treatment with vehicle (TBS) twice weekly (i.e., control animals).

Activin A [2] = target: T1, Activin A (Homo sapiens, UniProt P08476); experiment: Biacore steady-state affinity of ActRIIB-hFc proteins for activin A; assay type: binding; details: compared to counterparts lacking the L79D substitution
T1 sequence (P08476 311-426): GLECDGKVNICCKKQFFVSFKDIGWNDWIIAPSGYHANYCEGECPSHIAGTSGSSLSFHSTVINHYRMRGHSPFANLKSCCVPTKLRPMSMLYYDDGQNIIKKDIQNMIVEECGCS
Protocol: (§1) Affinities of several ligands for ActRIIB(25-131)-hFc and its full-length counterpart ActRIIB(20-134)-hFc were evaluated in vitro with a Biacore™ instrument, and the results are summarized in the table below. Kd values were obtained by steady-state affinity fit due to very rapid association and dissociation of the complex, which prevented accurate determination of kon and koff. ActRIIB(25-131)-hFc bound activin A, activin B, and GDF11 with high affinity.
(§2) The affinity of GDF traps and other ActRIIB-hFc proteins for several ligands was evaluated in vitro with a Biacore™ instrument. Kd values were obtained by steady-state affinity fit due to the very rapid association and dissociation of the complex, which prevented accurate determination of kon and koff.

Activin B = target: T2, Activin B (Homo sapiens, UniProt P09529); experiment: Biacore steady-state affinity of ActRIIB-hFc proteins for activin B; assay type: binding; details: compared to counterparts lacking the L79D substitution
T2 sequence (P09529 293-407): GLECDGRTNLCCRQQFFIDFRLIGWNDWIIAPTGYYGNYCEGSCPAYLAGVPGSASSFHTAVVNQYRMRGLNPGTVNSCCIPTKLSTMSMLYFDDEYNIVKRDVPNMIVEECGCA
Protocol: as §1, §2

GDF11 [3] = target: T3, GDF11 (Homo sapiens, UniProt O95390); experiment: Biacore steady-state affinity of ActRIIB-hFc proteins for GDF11; assay type: binding; details: compared to counterparts lacking the L79D substitution
T3 sequence (O95390 299-407): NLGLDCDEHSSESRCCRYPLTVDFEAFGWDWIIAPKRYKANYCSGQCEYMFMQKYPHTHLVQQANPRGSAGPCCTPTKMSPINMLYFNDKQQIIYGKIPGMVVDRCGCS
Protocol: as §1, §2

GDF8 [4] = target: T4, GDF8 (Homo sapiens, UniProt O14793); experiment: Biacore ligand binding of GDF trap, GDF8
T4 sequence (O14793 267-375): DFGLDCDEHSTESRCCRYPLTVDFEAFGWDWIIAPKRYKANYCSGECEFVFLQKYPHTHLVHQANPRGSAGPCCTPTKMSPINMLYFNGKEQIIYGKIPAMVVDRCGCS
Protocol: as §2

BMP6 = target: T5, BMP6 (Homo sapiens, UniProt P22004); experiment: Biacore ligand binding of GDF trap, BMP6
T5 sequence (P22004 375-513): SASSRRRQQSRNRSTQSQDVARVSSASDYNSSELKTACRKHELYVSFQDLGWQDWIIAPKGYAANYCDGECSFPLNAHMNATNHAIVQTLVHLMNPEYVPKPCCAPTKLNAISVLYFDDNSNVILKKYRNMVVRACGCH
Protocol: as §2

BMP10 = target: T6, BMP10 (Homo sapiens, UniProt O95393); experiment: Biacore ligand binding of GDF trap, BMP10
T6 sequence (O95393 317-424): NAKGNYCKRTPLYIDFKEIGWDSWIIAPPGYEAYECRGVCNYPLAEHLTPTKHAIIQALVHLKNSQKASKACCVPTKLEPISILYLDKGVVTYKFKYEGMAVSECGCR
Protocol: as §2

GDF11 [5] = target: T3, GDF11; details: ligand coupled to the device; reproduced from WO2006/012627; cited from earlier work
activin [6] = details: see U.S. Pat. No. 7,842,663; cited from earlier work
GDF11 [7] = target: T3, GDF11; details: see U.S. Pat. No. 7,842,663; cited from earlier work
Serum half-life in rats = assay type: in vivo
Protocol: Several variants have been assessed for serum half-life in rats. ActRIIB(20-134)-Fc has a serum half-life of approximately 70 hours. […] Any of the variants tested above, may be combined with the GDF trap molecules.

activin [8] = experiment: Affinity/binding of ActRIIB-Fc fusion proteins for activin; details: ActRIIB-Fc fusion protein, position 64 variant
GDF11 [9] = target: T3, GDF11; experiment: Affinity/binding of ActRIIB-Fc fusion proteins for GDF11; details: ActRIIB-Fc fusion protein, position 64 variant
GDF11 [10] = target: T3, GDF11; experiment: Biacore assay, receptor captured with anti-hFc antibody, GDF11 injected; assay type: binding; details: receptor captured via anti-hFc antibody
Protocol: (§3) Binding of certain ActRIIB-Fc proteins and GDF traps to ligands was tested in a Biacore™ assay.
(§4) The ActRIIB-Fc variants or wild-type protein were captured onto the system using an anti-hFc antibody. Ligands were injected and flowed over the captured receptor proteins.

GDF8 [11] = target: T4, GDF8; experiment: Biacore assay, receptor captured with anti-hFc antibody, GDF8 injected; assay type: binding; details: receptor captured via anti-hFc antibody
Protocol: as §3, §4

Activin A [12] = target: T1, Activin A; experiment: Biacore assay, receptor captured with anti-hFc antibody, activin A injected; assay type: binding; details: receptor captured via anti-hFc antibody
Protocol: as §3, §4

GDF11 [13] = target: T3, GDF11; experiment: A-204 reporter gene assay, inhibition of GDF-11 signaling; assay type: cell-based; design: host or cells: added to A-204 cells (human rhabdomyosarcoma)
Description: (§5) An A-204 reporter gene assay was used to evaluate the effects of ActRIIB-Fc proteins and GDF traps on signaling by GDF-11 and activin A. Cell line: human rhabdomyosarcoma (derived from muscle). Reporter vector: pGL3(CAGA)12 (described in Dennler et al, 1998, EMBO 17: 3091-3100). The CAGA12 motif is present in TGF-beta responsive genes (e.g., PAI-1 gene), so this vector is of general use for factors signaling through SMAD2 and 3.
(§6) Day 1: Split A-204 cells into 48-well plate.
(§7) Day 2: A-204 cells transfected with 10 ug pGL3(CAGA)12 or pGL3(CAGA)12(10 ug)+pRLCMV (1 μg) and Fugene.
(§8) Day 3: Add factors (diluted into medium+0.1% BSA). Inhibitors need to be preincubated with factors for 1 hr before adding to cells. Six hrs later, cells were rinsed with PBS and lysed.
(§9) This is followed by a luciferase assay.
(§10) Activity of ActRIIB-Fc proteins and GDF traps was tested in a cell-based assay as described above. Some variants were tested in different C-terminal truncation constructs. As discussed above, truncations of five or fifteen amino acids caused reduction in activity.

Activin A [14] = target: T1, Activin A; experiment: A-204 reporter gene assay, inhibition of activin A signaling; assay type: cell-based; design: host or cells: added to A-204 cells (human rhabdomyosarcoma)
Description: as §5, §6, §7, §8, §9, §10

GDF8 [15] = target: T4, GDF8; experiment: A-204 reporter gene assay, inhibition of GDF-8 activity; assay type: cell-based; design: host or cells: added to A-204 cells (human rhabdomyosarcoma)

C#C[C@]1(O)CC[C@H]2[C@@H]3CCC4=Cc5oncc5C[C@]4(C)[C@H]3CC[C@@]21C [danazol]
anemia response rate [1]: around 20%

N#CC[C@H](C1CCCC1)n1cc(-c2ncnc3[nH]ccc23)cn1 [ruxolitinib]
decrease of hemoglobin levels compared to control animals (C57BL/6 mice): ~4% | decrease of red blood cell levels compared to control animals (C57BL/6 mice): ~4%

ActRIIB(25-131)-hFc: human ActRIIB extracellular domain residues 25-131 fused to human Fc via three glycine residues, mature SEQ ID NO: 28
activin A binding, in words (Activin A [2]): high affinity | activin B binding, in words (Activin B): high affinity | GDF11 binding, in words (GDF11 [3]): high affinity

ActRIIB(L79D 25-131)-hFc: GDF trap with truncated ActRIIB extracellular domain (residues 25-131, L79D) fused to human Fc, SEQ ID NO: 50, 53
activin A binding, in words (Activin A [2]): pronounced loss | activin B binding, in words (Activin B): partial loss | GDF11 binding, in words (GDF11 [3]): nearly full retention | binding to GDF8, in words (GDF8 [4]): strong to intermediate | binding to BMP6, in words (BMP6): strong to intermediate | binding to BMP10, in words (BMP10): strong to intermediate

B1: K74A: soluble ActRIIB-Fc variant K74A, data from WO2006/012627 (protein)
chain: SGRGEAETRECIYYNANWELERTNQSGLERCEGEQDKRLHCYASWANSSGTIELVAKGCWLDDFNCYDRQECVATEENPQVYFCCCEGNFCNERFTHLPEA
modifications: left off: a dimerising Fc or GST
GDF11 binding relative to WT (GDF11 [5]): +++++ (~40x increased binding)

B2: ActRIIB(20-119)-Fc: ActRIIB-Fc fusion protein containing amino acids 20-119 of SEQ ID NO: 1 (protein)
chain: GRGEAETRECIYYNANWELERTNQSGLERCEGEQDKRLHCYASWRNSSGTIELVKKGCWLDDFNCYDRQECVATEENPQVYFCCCEGNFCNERFTHLPEA
modifications: Fc fusion, Fc no entry
binding to activin relative to ActRIIB(20-134)-Fc (activin [6]): reduced | binding to GDF11 relative to ActRIIB(20-134)-Fc (GDF11 [7]): reduced

B3: ActRIIB(20-134)-Fc: ActRIIB-Fc fusion protein containing amino acids 20-134 of SEQ ID NO: 1 (protein)
chain: GRGEAETRECIYYNANWELERTNQSGLERCEGEQDKRLHCYASWRNSSGTIELVKKGCWLDDFNCYDRQECVATEENPQVYFCCCEGNFCNERFTHLPEAGGPEVTYEPPPTAPT
modifications: Fc fusion partner without entry
serum half-life (Serum half-life in rats): approximately 70 hours

B4: A64 20-134: ActRIIB-Fc fusion protein, residues 20-134, alanine at position 64 (protein)
chain: B3 chain with R45A
modifications: Fc fusion partner without entry
affinity for activin, in words (activin [8]): relatively low affinity | affinity for GDF11, in words (GDF11 [9]): relatively low affinity

B5: ActRIIB(20-134)-hFc: extracellular domain of human ActRIIB (20-134, R64) fused to human Fc with three-glycine linker, SEQ ID NO: 24 (protein)
chain: GRGEAETRECIYYNANWELERTNQSGLERCEGEQDKRLHCYASWRNSSGTIELVKKGCWLDDFNCYDRQECVATEENPQVYFCCCEGNFCNERFTHLPEAGGPEVTYEPPPTAPTGGGTHTCPPCPAPELLGGPSVFLFPPKPKDTLMISRTPEVTCVVVDVSHEDPEVKFNWYVDGVEVHNAKTKPREEQYNSTYRVVSVLTVLHQDWLNGKEYKCKVSNKALPVPIEKTISKAKGQPREPQVYTLPPSREEMTKNQVSLTCLVKGFYPSDIAVEWESNGQPENNYKTTPPVLDSDGSFFLYSKLTVDKSRWQQGNVFSCSVMHEALHNHYTQKSLSLSPGK
Koff (1/s), GDF11 (GDF11 [10]): 0.000113 s⁻¹ | Koff (1/s), GDF8 (GDF8 [11]): 3.45e-05 s⁻¹ | Koff (1/s), Activin A (Activin A [12]): 0.000159 s⁻¹ | Kon (1/Ms), Activin A (Activin A [12]): 5.94e+06 M⁻¹ s⁻¹ | affinity for activin, in words (activin [8]): low nanomolar to high picomolar range | affinity for GDF11, in words (GDF11 [9]): low nanomolar to high picomolar range | inhibition of GDF-11 activity, in words (GDF11 [13]): potent inhibitor | inhibition of activin A activity, in words (Activin A [14]): potent inhibitor | inhibition of GDF-8 activity, in words (GDF8 [15]): potent inhibitor
